# In patent US20230346961A1, “GLP-1 AND GIP RECEPTOR CO-AGONISTS” (Novo Nordisk A/S, priority 2020, published 2023):
# Starred links: 1 amine or outer side, 2 acyl side, 3 side chain; linkers in the order of their positions; H or OH if unused. Non-standard residues stand in square brackets, D forms with d. Groups on a side chain read outwards from the residue. No end group written: not given here. *: point of attachment. C18 diacid = O=C(O)CCCCCCCCCCCCCCCCC(=O)*; γGlu = O=C(O)[C@H](CCC(=O)[*:2])N[*:1]; εLys = N[C@@H](CCCCN[*:1])C(=O)[*:2]; AEEA = NCCOCCOCC(=O)O; Aib = CC(C)(N)C(=O)O
# How the values were obtained:
# Test in all cases: cell-based or functional assay
# [1] = target: T1, human glucose-dependent insulinotropic polypeptide receptor (human) (UniProt P48546)
# T1 sequence (looked up): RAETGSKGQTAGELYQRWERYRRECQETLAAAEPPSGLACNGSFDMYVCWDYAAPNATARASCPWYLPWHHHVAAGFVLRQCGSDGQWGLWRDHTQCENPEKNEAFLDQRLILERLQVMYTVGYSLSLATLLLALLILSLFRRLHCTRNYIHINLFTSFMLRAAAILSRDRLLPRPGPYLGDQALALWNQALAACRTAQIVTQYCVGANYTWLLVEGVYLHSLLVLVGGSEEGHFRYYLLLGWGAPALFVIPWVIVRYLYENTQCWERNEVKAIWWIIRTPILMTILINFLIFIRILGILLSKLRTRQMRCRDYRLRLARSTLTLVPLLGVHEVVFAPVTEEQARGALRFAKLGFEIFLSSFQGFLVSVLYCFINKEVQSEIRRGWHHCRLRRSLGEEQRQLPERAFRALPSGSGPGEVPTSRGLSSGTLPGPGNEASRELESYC
# [2] = target: T2, mouse glucose-dependent insulinotropic polypeptide receptor (mouse) (UniProt Q0P543)
# T2 sequence (looked up): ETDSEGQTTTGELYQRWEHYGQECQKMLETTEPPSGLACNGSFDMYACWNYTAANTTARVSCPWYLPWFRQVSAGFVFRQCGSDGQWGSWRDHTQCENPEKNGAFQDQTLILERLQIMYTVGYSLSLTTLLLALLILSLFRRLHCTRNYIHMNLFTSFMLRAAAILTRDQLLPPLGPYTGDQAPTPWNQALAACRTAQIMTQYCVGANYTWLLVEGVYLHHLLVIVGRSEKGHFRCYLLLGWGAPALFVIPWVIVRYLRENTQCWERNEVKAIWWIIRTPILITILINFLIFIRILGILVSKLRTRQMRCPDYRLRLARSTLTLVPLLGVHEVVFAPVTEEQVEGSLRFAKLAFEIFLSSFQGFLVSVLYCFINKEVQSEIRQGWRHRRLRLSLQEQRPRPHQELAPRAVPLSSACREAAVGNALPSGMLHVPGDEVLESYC
# [3] = target: T3, mouse glucose-dependent insulinotropic polypeptide receptor (mouse, UniProt Q0P543 19-460)
# T3 sequence (looked up): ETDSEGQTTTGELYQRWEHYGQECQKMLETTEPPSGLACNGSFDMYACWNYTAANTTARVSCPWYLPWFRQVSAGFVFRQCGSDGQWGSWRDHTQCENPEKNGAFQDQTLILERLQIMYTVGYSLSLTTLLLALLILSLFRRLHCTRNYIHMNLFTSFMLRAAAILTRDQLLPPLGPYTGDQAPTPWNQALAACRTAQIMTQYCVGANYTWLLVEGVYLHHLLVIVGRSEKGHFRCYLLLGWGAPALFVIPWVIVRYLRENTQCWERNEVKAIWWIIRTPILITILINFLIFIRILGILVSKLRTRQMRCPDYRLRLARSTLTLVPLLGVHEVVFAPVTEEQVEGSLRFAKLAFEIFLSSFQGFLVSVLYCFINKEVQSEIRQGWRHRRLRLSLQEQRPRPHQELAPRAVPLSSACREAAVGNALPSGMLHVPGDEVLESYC
# [4] = target: T4, mouse glucagon-like peptide 1 receptor (mouse, UniProt O35659 22-463)
# T4 sequence (looked up): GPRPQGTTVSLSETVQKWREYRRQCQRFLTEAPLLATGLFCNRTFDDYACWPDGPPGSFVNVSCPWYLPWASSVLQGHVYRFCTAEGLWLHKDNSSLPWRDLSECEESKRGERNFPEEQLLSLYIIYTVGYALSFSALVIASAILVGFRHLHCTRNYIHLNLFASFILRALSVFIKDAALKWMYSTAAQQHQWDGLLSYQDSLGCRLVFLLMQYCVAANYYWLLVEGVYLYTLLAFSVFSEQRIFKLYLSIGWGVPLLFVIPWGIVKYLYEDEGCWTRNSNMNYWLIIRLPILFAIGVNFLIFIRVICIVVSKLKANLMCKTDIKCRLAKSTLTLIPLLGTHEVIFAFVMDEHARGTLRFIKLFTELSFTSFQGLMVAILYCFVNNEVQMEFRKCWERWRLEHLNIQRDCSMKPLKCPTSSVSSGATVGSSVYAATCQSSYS
# [5] = target: T5, human glucose-dependent insulinotropic polypeptide receptor (human, UniProt P48546 22-466)
# T5 sequence (looked up): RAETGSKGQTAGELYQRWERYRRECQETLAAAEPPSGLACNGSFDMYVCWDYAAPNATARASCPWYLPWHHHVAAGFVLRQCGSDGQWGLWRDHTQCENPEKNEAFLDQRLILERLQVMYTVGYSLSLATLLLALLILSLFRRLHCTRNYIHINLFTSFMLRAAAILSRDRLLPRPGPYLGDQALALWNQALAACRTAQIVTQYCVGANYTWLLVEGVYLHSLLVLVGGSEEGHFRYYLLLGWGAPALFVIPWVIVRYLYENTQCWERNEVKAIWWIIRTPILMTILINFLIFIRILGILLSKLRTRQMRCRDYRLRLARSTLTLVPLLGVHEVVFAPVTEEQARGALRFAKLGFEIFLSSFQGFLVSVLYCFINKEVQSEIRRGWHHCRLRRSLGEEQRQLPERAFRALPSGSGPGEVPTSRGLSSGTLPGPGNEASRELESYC
# [6] = target: human glucagon-like peptide 1 receptor (human, UniProt P43220 24-463)
# human glucagon receptor = human glucagon receptor (human, UniProt P47871 26-477)
Molecule,"hGIPR, CRE Luc 0% HSA EC50 [1] [nM]","hGIPR, CRE Luc 1% HSA EC50 [1] [nM]","mGIPR, CRE Luc EC50 [2] [nM]","mGIPR, CRE Luc EC50 [3] [nM]","mGLP-1R, CRE Luc EC50 [4] [nM]","hGIPR, CRE Luc 0% HSA EC50 [5] [nM]","hGIPR, CRE Luc 1% HSA EC50 [5] [nM]","hGLP-1R, CRE Luc 0% HSA EC50 [6] [nM]","hGLP-1R, CRE Luc 1% HSA EC50 [6] [nM]","hGcgR, CRE Luc EC50 (human glucagon receptor) [nM]"
human GIP (from UniProt P09681 52-93) (ligand),0.0085,0.0038,–,–,–,–,–,–,–,–
mouse GIP (from UniProt P48756 44-85) (ligand),–,–,0.0354,–,–,–,–,–,–,–
Ac-[dY]AEGTFTSDYSIYLDKQAA[Aib]K([AEEA-AEEA-γGlu-C18 diacid])FVNWLLAGGPSSGAPPPS-NH2 (SMILES CC[C@H](C)[C@H](NC(=O)[C@H](CO)NC(=O)[C@H](Cc1ccc(O)cc1)NC(=O)[C@H](CC(=O)O)NC(=O)[C@H](CO)NC(=O)[C@@H](NC(=O)[C@H](Cc1ccccc1)NC(=O)[C@@H](NC(=O)CNC(=O)[C@H](CCC(=O)O)NC(=O)[C@H](C)NC(=O)[C@@H](Cc1ccc(O)cc1)NC(C)=O)[C@@H](C)O)[C@@H](C)O)C(=O)N[C@@H](Cc1ccc(O)cc1)C(=O)N[C@@H](CC(C)C)C(=O)N[C@@H](CC(=O)O)C(=O)N[C@@H](CCCCN)C(=O)N[C@@H](CCC(N)=O)C(=O)N[C@@H](C)C(=O)N[C@@H](C)C(=O)NC(C)(C)C(=O)N[C@@H](CCCCNC(=O)COCCOCCNC(=O)COCCOCCNC(=O)CC[C@H](NC(=O)CCCCCCCCCCCCCCCCC(=O)O)C(=O)O)C(=O)N[C@@H](Cc1ccccc1)C(=O)N[C@H](C(=O)N[C@@H](CC(N)=O)C(=O)N[C@@H](Cc1c[nH]c2ccccc12)C(=O)N[C@@H](CC(C)C)C(=O)N[C@@H](CC(C)C)C(=O)N[C@@H](C)C(=O)NCC(=O)NCC(=O)N1CCC[C@H]1C(=O)N[C@@H](CO)C(=O)N[C@@H](CO)C(=O)NCC(=O)N[C@@H](C)C(=O)N1CCC[C@H]1C(=O)N1CCC[C@H]1C(=O)N1CCC[C@H]1C(=O)N[C@@H](CO)C(N)=O)C(C)C) [Compound #7],–,–,–,0.0425,0.0174,0.0033,0.0493,0.0557,1.73,–
Y[Aib]EGTFTSDYSIYLDKQAA[Aib]K([εLys-εLys-γGlu-C18 diacid])FVNWLLAGGPSSGAPPPS-NH2 (N-terminus assumed; SMILES CC[C@H](C)[C@H](NC(=O)[C@H](CO)NC(=O)[C@H](Cc1ccc(O)cc1)NC(=O)[C@H](CC(=O)O)NC(=O)[C@H](CO)NC(=O)[C@@H](NC(=O)[C@H](Cc1ccccc1)NC(=O)[C@@H](NC(=O)CNC(=O)[C@H](CCC(=O)O)NC(=O)C(C)(C)NC(=O)[C@@H](N)Cc1ccc(O)cc1)[C@@H](C)O)[C@@H](C)O)C(=O)N[C@@H](Cc1ccc(O)cc1)C(=O)N[C@@H](CC(C)C)C(=O)N[C@@H](CC(=O)O)C(=O)N[C@@H](CCCCN)C(=O)N[C@@H](CCC(N)=O)C(=O)N[C@@H](C)C(=O)N[C@@H](C)C(=O)NC(C)(C)C(=O)N[C@@H](CCCCNC(=O)[C@@H](N)CCCCNC(=O)[C@@H](N)CCCCNC(=O)CC[C@H](NC(=O)CCCCCCCCCCCCCCCCC(=O)O)C(=O)O)C(=O)N[C@@H](Cc1ccccc1)C(=O)N[C@H](C(=O)N[C@@H](CC(N)=O)C(=O)N[C@@H](Cc1c[nH]c2ccccc12)C(=O)N[C@@H](CC(C)C)C(=O)N[C@@H](CC(C)C)C(=O)N[C@@H](C)C(=O)NCC(=O)NCC(=O)N1CCC[C@H]1C(=O)N[C@@H](CO)C(=O)N[C@@H](CO)C(=O)NCC(=O)N[C@@H](C)C(=O)N1CCC[C@H]1C(=O)N1CCC[C@H]1C(=O)N1CCC[C@H]1C(=O)N[C@@H](CO)C(N)=O)C(C)C) [Compound #9],–,–,–,0.068,0.0025,0.0116,0.135,0.0067,0.11,> 10
Y[Aib]EGTFTSDYSIYLDKQAA[Aib]K([γGlu-γGlu-γGlu-C18 diacid])FVNWLLAGGPSSGAPPPS-NH2 (N-terminus assumed; SMILES CC[C@H](C)[C@H](NC(=O)[C@H](CO)NC(=O)[C@H](Cc1ccc(O)cc1)NC(=O)[C@H](CC(=O)O)NC(=O)[C@H](CO)NC(=O)[C@@H](NC(=O)[C@H](Cc1ccccc1)NC(=O)[C@@H](NC(=O)CNC(=O)[C@H](CCC(=O)O)NC(=O)C(C)(C)NC(=O)[C@@H](N)Cc1ccc(O)cc1)[C@@H](C)O)[C@@H](C)O)C(=O)N[C@@H](Cc1ccc(O)cc1)C(=O)N[C@@H](CC(C)C)C(=O)N[C@@H](CC(=O)O)C(=O)N[C@@H](CCCCN)C(=O)N[C@@H](CCC(N)=O)C(=O)N[C@@H](C)C(=O)N[C@@H](C)C(=O)NC(C)(C)C(=O)N[C@@H](CCCCNC(=O)CC[C@H](NC(=O)CC[C@H](NC(=O)CC[C@H](NC(=O)CCCCCCCCCCCCCCCCC(=O)O)C(=O)O)C(=O)O)C(=O)O)C(=O)N[C@@H](Cc1ccccc1)C(=O)N[C@H](C(=O)N[C@@H](CC(N)=O)C(=O)N[C@@H](Cc1c[nH]c2ccccc12)C(=O)N[C@@H](CC(C)C)C(=O)N[C@@H](CC(C)C)C(=O)N[C@@H](C)C(=O)NCC(=O)NCC(=O)N1CCC[C@H]1C(=O)N[C@@H](CO)C(=O)N[C@@H](CO)C(=O)NCC(=O)N[C@@H](C)C(=O)N1CCC[C@H]1C(=O)N1CCC[C@H]1C(=O)N1CCC[C@H]1C(=O)N[C@@H](CO)C(N)=O)C(C)C) [Compound #6],–,–,–,1.27,0.0023,0.0081,0.101,0.0059,0.244,–
Ac-[dY]AEGTFTSDYSIYLDKQAA[Aib]K([εLys-εLys-γGlu-C18 diacid])FVNWLLAGGPSSGAPPPS-NH2 (SMILES CC[C@H](C)[C@H](NC(=O)[C@H](CO)NC(=O)[C@H](Cc1ccc(O)cc1)NC(=O)[C@H](CC(=O)O)NC(=O)[C@H](CO)NC(=O)[C@@H](NC(=O)[C@H](Cc1ccccc1)NC(=O)[C@@H](NC(=O)CNC(=O)[C@H](CCC(=O)O)NC(=O)[C@H](C)NC(=O)[C@@H](Cc1ccc(O)cc1)NC(C)=O)[C@@H](C)O)[C@@H](C)O)C(=O)N[C@@H](Cc1ccc(O)cc1)C(=O)N[C@@H](CC(C)C)C(=O)N[C@@H](CC(=O)O)C(=O)N[C@@H](CCCCN)C(=O)N[C@@H](CCC(N)=O)C(=O)N[C@@H](C)C(=O)N[C@@H](C)C(=O)NC(C)(C)C(=O)N[C@@H](CCCCNC(=O)[C@@H](N)CCCCNC(=O)[C@@H](N)CCCCNC(=O)CC[C@H](NC(=O)CCCCCCCCCCCCCCCCC(=O)O)C(=O)O)C(=O)N[C@@H](Cc1ccccc1)C(=O)N[C@H](C(=O)N[C@@H](CC(N)=O)C(=O)N[C@@H](Cc1c[nH]c2ccccc12)C(=O)N[C@@H](CC(C)C)C(=O)N[C@@H](CC(C)C)C(=O)N[C@@H](C)C(=O)NCC(=O)NCC(=O)N1CCC[C@H]1C(=O)N[C@@H](CO)C(=O)N[C@@H](CO)C(=O)NCC(=O)N[C@@H](C)C(=O)N1CCC[C@H]1C(=O)N1CCC[C@H]1C(=O)N1CCC[C@H]1C(=O)N[C@@H](CO)C(N)=O)C(C)C) [Compound #8],–,–,–,0.0233,0.017,0.0047,0.0341,0.0299,0.699,–
